Tests used:
[1] = tested on: odorant receptor BmOR56; experiment: Aequorin luminescence measurement in HEK293FT cells co-expressing BmOR56 and a co-receptor, cis-jasmone added; format: cell-based, Bombyx mori; settings: cis-jasmone 10^-5 to 10^-11 M, compared to cells that expressed BmORCO and BmOR56
Protocol: (§1) HEK293FT cells (purchased from invitrogen, Inc.) were inoculated into 10-cm Petri dishes at a concentration of 3×10^6 cells/Petri dish, and the cells were cultured in DMEM medium containing 10% FBS (manufactured by Nacalai Tesque, Inc.) for about 24 hours under the conditions of 37° C. and 5% CO2. 3 μg of any one of the co-receptor expression plasmids produced, 1.5 μg of any one of the odorant receptor expression plasmids produced, and 8 μg of Aequorin expression plasmid were mixed with 12.5 μL of Plus reagent and 31.25 μL of LIPOFECTAMINE LTX (manufactured by Invitrogen, Inc.), and the mixture was maintained for 30 minutes. Subsequently this liquid mixture was transfected into the above-mentioned cells. […]
(§2) Aequorin is activated when hound to a calcium ion, and oxidizes a substrate such as coelenterazine, thus emitting light. […] Therefore, whether an odorant receptor complex functions an ion channel as a result of addition of a substance to be detected, can be measured from the change in the amount of luminescence. […]
(§3) Cells into which: • an expression plasmid of odorant receptor BmOR56; • an expression plasmid of any one of co-receptor BmORCO or chimeric co-receptor Dm(NT-TM4)AmORCO; and • an aequorin expression plasmid had been incorporated were used, and the amount of luminescence was measured as explained above. […]

[2] = tested on: odorant receptor DmOR47a; experiment: Aequorin luminescence measurement in HEK293FT cells co-expressing DmOR47a and a co-receptor, pentyl acetate added; format: cell-based, Drosophila melanogaster; settings: pentyl acetate 10^-4 to 10^-7 M, compared to cells that expressed original DmORCO or AmORCO
Protocol: as §1, §2
as §3, with “DmOR47a;” for “BmOR56;”, “DmORCO or AmORCO,” for “BmORCO”

[3] = tested on: odorant receptor AaOR8; experiment: Aequorin luminescence measurement in HEK293FT cells co-expressing AaOR8 and a co-receptor, 1-octen-3-ol added; format: cell-based; settings: 1-octen-3-ol 10^-4 to 10^-10 M, compared to cells that expressed original AmORCO or DmORCO
Protocol: HEK293FT cells (purchased from invitrogen, Inc.) were inoculated into 10-cm Petri dishes at a concentration of 3×10^6 cells/Petri dish, and the cells were cultured in DMEM medium containing 10% FBS (manufactured by Nacalai Tesque, Inc.) for about 24 hours under the conditions of 37° C. and 5% CO2. 3 μg of any one of the co-receptor expression plasmids produced, 1.5 μg of any one of the odorant receptor expression plasmids produced, and 8 μg of Aequorin expression plasmid were mixed with 12.5 μL of Plus reagent and 31.25 μL of LIPOFECTAMINE LTX (manufactured by Invitrogen, Inc.), and the mixture was maintained for 30 minutes. Subsequently this liquid mixture was transfected into the above-mentioned cells. After 4 hours from the initiation of transfection, the cells were inoculated onto a 96-well plate at a concentration of 9×10^4 cells/well, and the cells were cultured in DMEM medium containing 10% FBS (manufactured by Nacalai Tesque, Inc.) for about 24 hours under the conditions of 37° C. and 5% CO2. Thereby, transformed cells having a co-receptor expression plasmid, an odorant receptor expression plasmid, and an aequorin expression plasmid transiently incorporated therein were obtained.
Aequorin is activated when hound to a calcium ion, and oxidizes a substrate such as coelenterazine, thus emitting light. […] Therefore, whether an odorant receptor complex functions an ion channel as a result of addition of a substance to be detected, can be measured from the change in the amount of luminescence.
A culture fluid of the transformed cells was removed, and the medium was exchanged with Hanks-HEPES (20 mM, pH 7.4) including Assay buffer (0.5 μM coelenterazine h (manufactured by Promega Corporation) and 0.3% BSA. culture system was left to stand for another 4 hours at room temperature. Subsequently, a substance to be detected, which corresponded to an odorant receptor, was added to the cell culture using FLEXSTATION 3 (manufactured by Molecular Devices, LLC), and at the same time, the amount of luminescence of the cells was measured. As a control substance, the amount of luminescence in the cells to which dimethyl sulfoxide had been added was designated as 1, and the amount or luminescence of cells to which the substance to be detected was added was calculated as a relative value.
(§4) Cells into which: • an expression plasmid of odorant receptor AaOR8; • an expression plasmid of any one of co-receptor AaORCO or DmORCO, or various chimeric co-receptors Dm-AaORCO having different positions of recombination [Dm(NT-EC1)AaORCO, Dm(NT-TM3)AaOROC, Dm(NT-TM4)AaORCO, Dm(NT-TM5)AaORCO, or Dm(NT-TM6)AaORCO]; and • an aequorin expression plasmid had been incorporated were used, and the amount of luminescence was measured as explained above. 1-Octen-3-ol was used as a substance to be detected, and 1-octen-3-ol was added to the culture fluid at a concentration of 10^−4 M, 10^−5 M, 10^−6 M, 10^−7 M, 10^−8 M, 10^−9 M, or 10^−10 M. The results are presented in FIG. 1.
as §4, with “AmORCO” for “AaORCO”, “Dm-AmORCO” for “Dm-AaORCO”, “[Dm(NT-TM3)AmOROC, Dm(NT-TM4)AmORCO, Dm(NT-TM5)AmORCO,” for “[Dm(NT-EC1)AaORCO, Dm(NT-TM3)AaOROC, Dm(NT-TM4)AaORCO, Dm(NT-TM5)AaORCO,”, “Dm(NT-TM6)AmORCO];” for “Dm(NT-TM6)AaORCO];”, “2. […]” for “1.”

Chain of odorant receptor AaOR8 (as listed by the source): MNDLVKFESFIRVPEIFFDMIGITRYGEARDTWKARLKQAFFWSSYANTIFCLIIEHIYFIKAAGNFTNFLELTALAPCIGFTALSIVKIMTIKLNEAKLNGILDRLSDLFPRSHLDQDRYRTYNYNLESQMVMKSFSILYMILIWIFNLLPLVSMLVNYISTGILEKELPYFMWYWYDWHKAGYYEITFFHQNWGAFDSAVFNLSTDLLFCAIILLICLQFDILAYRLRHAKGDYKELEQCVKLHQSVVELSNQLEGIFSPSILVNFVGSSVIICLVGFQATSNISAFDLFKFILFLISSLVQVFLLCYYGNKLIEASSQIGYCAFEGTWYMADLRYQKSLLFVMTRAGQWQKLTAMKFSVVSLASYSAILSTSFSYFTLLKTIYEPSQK
Chain of odorant receptor DmOR47a (as listed by the source, one chain of several): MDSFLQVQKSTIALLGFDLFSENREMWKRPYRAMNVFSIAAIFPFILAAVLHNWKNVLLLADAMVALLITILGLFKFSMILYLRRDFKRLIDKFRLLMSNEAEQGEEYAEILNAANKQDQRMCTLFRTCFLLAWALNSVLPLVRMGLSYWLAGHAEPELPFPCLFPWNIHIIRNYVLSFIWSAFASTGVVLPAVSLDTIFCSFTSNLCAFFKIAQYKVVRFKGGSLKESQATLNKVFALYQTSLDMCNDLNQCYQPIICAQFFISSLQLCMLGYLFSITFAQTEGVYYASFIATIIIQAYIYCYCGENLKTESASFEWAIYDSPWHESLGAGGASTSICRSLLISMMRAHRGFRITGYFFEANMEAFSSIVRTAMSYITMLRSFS
Chain of odorant receptor BmOR56 (as listed by the source, one chain of several): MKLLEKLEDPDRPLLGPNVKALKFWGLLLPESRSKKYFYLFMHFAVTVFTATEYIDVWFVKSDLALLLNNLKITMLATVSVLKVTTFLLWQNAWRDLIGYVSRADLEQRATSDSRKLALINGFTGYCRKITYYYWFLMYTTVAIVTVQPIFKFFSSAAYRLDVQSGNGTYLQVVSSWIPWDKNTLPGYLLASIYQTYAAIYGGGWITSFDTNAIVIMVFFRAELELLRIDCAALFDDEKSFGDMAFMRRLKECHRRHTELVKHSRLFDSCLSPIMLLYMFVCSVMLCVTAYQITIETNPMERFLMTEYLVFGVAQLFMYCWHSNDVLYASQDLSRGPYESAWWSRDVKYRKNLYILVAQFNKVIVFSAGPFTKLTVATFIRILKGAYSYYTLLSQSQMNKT

B1: Dm(NT-TM4)AmORCO: chimeric co-receptor: NT to TM4 from Drosophila co-receptor, IC2 to C-terminal domain from Apis co-receptor; SEQ ID NO:100 (protein)
chain: MTTSMQPSKYTGLVADLMPNIRAMKYSGLFMHNFTGGSAFMKKVYSSVHLVFLLMQFTFILVNMALNAEEVNELSGNTITTLFFTHCITKFIYLAVNQKNFYRTLNIWNQVNTHPLFAESDARYHSIALAKMRKLFFLVMLTTVASATAWTTITFFGDSVKMVVDHETNSSIPVEIPRLPIKSFYPWNASHGMFYMISFAFQIYYVLFSMIHSNLCDVMFCSWLIFACEQLQHLKNIMKPLMEFSATLDTVVPNSGELFKAGSAEQPKEQEPLPPVTPPQGENMLDMDLRGIYSNRTDFTTTFRPTAGMTFNGGVGPNGLTKKQEMLVRSAIKYWVERHKHIVRLVTAIGDAYGVALLLHMLTTTITLTLLAYQATKIHAVDTYAASVVGYLLYSLGQVFMLCIFGNRLIEESSSVMEAAYSCHWYDGSEEAKTFVQIVCQQCQKAMSISGAKFFTVSLDLFASVLGAMVTYFMVLVQLK
response (relative amount of luminescence) to cis-jasmone [1]: responded more strongly to cis-jasmone | response (relative amount of luminescence) to pentyl acetate [2]: responded more strongly to pentyl acetate | increase in the amount of luminescence caused by addition of 1-octen-3-ol [3]: the increase in the amount of luminescence caused by addition of 1-octen-3-ol was larger

Reference: patent US11919930B2, “Odorant receptor co-receptor” (Sumitomo Chemical Company, Limited, priority 2016, dated 2024)
